Laboratory results from patent US20110300139A1 (GENE TECHNO SCIENCE, published 2011).
Blank lines part the entries; values can stand above or below the molecule they belong to.

What was measured:
[1] = target: T1, human α9 integrin (human, UniProt Q13797 30-1035); assay: cell-based or functional assay
T1 sequence: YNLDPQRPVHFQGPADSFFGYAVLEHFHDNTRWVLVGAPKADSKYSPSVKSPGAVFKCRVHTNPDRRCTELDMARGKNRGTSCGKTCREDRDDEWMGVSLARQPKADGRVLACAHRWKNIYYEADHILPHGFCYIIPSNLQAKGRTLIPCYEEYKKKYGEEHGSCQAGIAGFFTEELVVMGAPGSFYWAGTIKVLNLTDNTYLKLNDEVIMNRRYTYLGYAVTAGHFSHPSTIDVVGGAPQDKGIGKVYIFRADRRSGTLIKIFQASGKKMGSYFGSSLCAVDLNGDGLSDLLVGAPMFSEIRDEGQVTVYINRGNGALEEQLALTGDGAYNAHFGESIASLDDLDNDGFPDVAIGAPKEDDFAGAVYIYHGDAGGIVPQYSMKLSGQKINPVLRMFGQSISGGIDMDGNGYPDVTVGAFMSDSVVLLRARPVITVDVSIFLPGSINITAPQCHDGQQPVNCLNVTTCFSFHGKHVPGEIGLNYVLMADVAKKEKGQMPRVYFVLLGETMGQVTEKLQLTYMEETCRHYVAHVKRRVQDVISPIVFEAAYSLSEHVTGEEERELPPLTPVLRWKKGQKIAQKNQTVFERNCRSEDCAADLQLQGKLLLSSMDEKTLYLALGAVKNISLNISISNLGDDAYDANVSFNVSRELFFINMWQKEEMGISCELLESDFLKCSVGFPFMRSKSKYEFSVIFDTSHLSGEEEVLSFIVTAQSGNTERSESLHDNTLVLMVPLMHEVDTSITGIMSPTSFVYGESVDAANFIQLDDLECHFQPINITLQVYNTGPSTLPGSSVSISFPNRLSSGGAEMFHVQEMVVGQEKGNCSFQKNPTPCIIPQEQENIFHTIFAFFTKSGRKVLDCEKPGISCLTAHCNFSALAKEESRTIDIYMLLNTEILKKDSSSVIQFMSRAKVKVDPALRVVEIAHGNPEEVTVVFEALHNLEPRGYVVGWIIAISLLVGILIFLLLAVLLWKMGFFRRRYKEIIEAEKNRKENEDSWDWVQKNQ

[2] = target: T1, human α9 integrin; assay: FACS binding assay on CHO/huα9 cells
Description: (§1) Mouse K33N antibody was tested at various concentrations, starting at 1.67 μg/ml and serial 3-fold dilutions, for binding to CHO/huα9 cells. Geometric mean channel fluorescence values (MCF; Y-axis) are plotted at each antibody concentration tested (X-axis) in the figure. EC₅₀ values were calculated using GraphPad Prism (GraphPad Software, San Diego, Calif.).
as §1, with “Each” for “Mouse K33N”, “5” for “1.67”
Binding of mouse, chimeric and humanized K33N antibodies to human α9 integrin was examined in a FACS binding assay with CHO/huα9 cells. Approximately 5×10⁵ CHO/huα9 cells/test were washed with FACS Binding Buffer (PBS containing 0.5% BSA and 0.05% NaN₃) and suspended in 200 μl of FACS Binding Buffer containing various amounts of test antibody. After 30 min on ice, the cells were washed with FACS Binding Buffer. The cells stained with mouse K33N were then suspended in 100 μl of 1/200-diluted FITC-labeled goat anti-mouse IgG polyclonal antibody (SouthernBiotech) in FACS Binding Buffer. The cells stained with chimeric or humanized K33N were suspended in 100 μl of 1/200-diluted FITC-labeled goat anti-human IgG polyclonal antibody (SouthernBiotech) in FACS Binding Buffer. After 30 min on ice, the cells were washed with FACS Binding Buffer, suspended in 200 μl of FACS Binding Buffer, and analyzed using a FACScan flow cytometer (BD Biosciences, Franklin Lakes, N.J.). […] Between ChK33N and HuK33N antibodies, the binding pattern was very similar to each other (FIG. 22).

[3] = target: T2, human α4 integrin (human, UniProt P13612 34-1032); assay: hybridoma screening on transfected cells
T2 construct: whole, on cells; Expressed on CHO K1 cells and used as the negative screen for hybridomas; also called CHO K1 cells expressing human α4 integrin
T2 sequence (looked up): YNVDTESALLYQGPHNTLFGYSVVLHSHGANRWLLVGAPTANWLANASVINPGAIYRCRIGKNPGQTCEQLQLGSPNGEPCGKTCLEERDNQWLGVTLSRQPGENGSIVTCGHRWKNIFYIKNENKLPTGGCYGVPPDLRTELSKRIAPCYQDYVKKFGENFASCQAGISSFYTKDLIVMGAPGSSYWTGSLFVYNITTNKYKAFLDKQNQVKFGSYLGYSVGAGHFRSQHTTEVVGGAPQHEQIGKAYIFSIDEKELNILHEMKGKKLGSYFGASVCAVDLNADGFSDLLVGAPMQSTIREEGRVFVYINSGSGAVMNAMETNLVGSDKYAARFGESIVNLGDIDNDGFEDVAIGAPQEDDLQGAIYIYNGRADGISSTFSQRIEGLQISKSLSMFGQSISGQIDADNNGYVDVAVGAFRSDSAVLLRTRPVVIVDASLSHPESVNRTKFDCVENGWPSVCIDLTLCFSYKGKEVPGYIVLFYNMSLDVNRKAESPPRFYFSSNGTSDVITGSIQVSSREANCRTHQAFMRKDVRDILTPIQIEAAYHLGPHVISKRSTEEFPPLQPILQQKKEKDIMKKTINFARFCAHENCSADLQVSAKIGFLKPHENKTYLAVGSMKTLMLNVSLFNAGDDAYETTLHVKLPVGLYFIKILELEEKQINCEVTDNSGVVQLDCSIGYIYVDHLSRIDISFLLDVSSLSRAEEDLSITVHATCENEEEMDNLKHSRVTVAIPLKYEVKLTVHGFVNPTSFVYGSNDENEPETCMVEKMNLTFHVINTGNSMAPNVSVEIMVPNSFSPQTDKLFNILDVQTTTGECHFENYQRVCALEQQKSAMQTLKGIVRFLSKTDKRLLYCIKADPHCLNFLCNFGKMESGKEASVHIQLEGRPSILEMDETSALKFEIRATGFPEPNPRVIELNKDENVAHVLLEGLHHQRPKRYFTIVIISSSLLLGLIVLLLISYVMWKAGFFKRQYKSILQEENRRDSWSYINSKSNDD
Description: Mouse monoclonal antibodies against human α9 integrin were prepared according to the subtractive immunization method (by Williams C. V., et al., 1992, Biotechniques 12:842-847). Briefly, three Balb/c mice were injected intraperitoneally with NIH-3T3 cells expressing human α9 integrin (Human α9/NIH-3T3 cells) at 3×10⁶ per mouse. At one and two weeks after the injection, the mice were injected intraperitoneally with 3×10⁶ cells/mouse of Human α9/NIH-3T3 cells, followed by another intravenous injection of the same cells at 2×10⁶ cell/mouse one week later. Hybridomas were prepared by the methods well known in the art (see, for example, Harlow et al., Antibodies: A Laboratory Manual, (Cold Spring Harbor Laboratory Press, 2nd ed. 1988); Hammerling, et al., in: Monoclonal Antibodies and T-Cell Hybridomas, pp. 563-681 (Elsevier, N.Y., 1981). Hybridoma clones producing monoclonal antibodies that were immunospecifically reactive with Human α9/CHO-K1 cells expressing human α9 integrin and with human melanoma cells endogenously expressing human α9 integrin but not with CHO K1 cells expressing human α4 integrin were established and a hybridoma clone (i.e., K33N) producing monoclonal antibody immunospecifically recognizing human α9 integrin were isolated.

B2: chimeric K33N IgG1/κ antibody (antibody, V domains shown)
VH: QVQLQQSGPELVKPGASVKISCKASGYSFTSYYMNWVKKRPGQGLEWIGWIFPGSGNTKYNEKFKGKATLTADTSSSTAYMQVSSLTSEDSAVYFCARSWVSYERGYYFDYWGQGTSLTVSS
VL: DIQMTQSPASLAASVGETVTLTCRASENIYYSLAWYQQKQGKSPQLLIYNANSLEDGVPSRFSGSGSGTQYSMKINSMQPEDTATYFCKQAYDVPYTFGGGTKLEIK
notes: Mouse K33N variable regions on human gamma-1 and kappa constant regions (vector pChK33N); also called ChK33N
IC50 of cell adhesion inhibition (G-361 cells to hTNC (AEIDGIEL)-BSA) [1]: 0.09 µg/mL
EC50 [2]: 0.143 µg/mL

B3: humanized K33N IgG1/κ antibody (antibody, V domains shown)
VH: QVQLVQSGAEVKKPGASVKVSCKASGYSFTSYYMNWVRQAPGQRLEWIGWIFPGSGNTKYNEKFKGKATLTADTSASTAYMELSSLRSEDTAVYYCARSWVSYERGYYFDYWGQGTLVTVSS
VL: DIQMTQSPSSLSASVGDRVTITCRASENIYYSLAWYQQKPGKAPKLLIYNANSLEDGVPSRFSGSGSGTQYTLTISSLQPEDFATYYCKQAYDVPYTFGQGTKVEIKR
notes: also called HuK33N
IC50 of cell adhesion inhibition (G-361 cells to hTNC (AEIDGIEL)-BSA) [1]: 0.084 µg/mL
EC50 [2]: 0.151 µg/mL

Continued, values first:

IC50 of cell adhesion inhibition (G-361 cells to hTNC (AEIDGIEL)-BSA) [1]: 0.053 µg/mL
Molecule: mouse anti human α9 integrin antibody Y9A2

IC50 of cell adhesion inhibition (G-361 cells to hTNC (AEIDGIEL)-BSA) [1]: 0.075 µg/mL
EC50 [2]: 0.104 µg/mL
binding result [3]: no binding
B1: mouse K33N monoclonal antibody (hybridoma FERM BP-10830) (antibody, mouse IgG1, V domains shown)
VH: B2 VH
VL: B2 VL
notes: also called mouse K33N antibody
